Test results reported in patent publication US20210145976A1.

B1: SEQ ID NO 106 (designed binder)
chain: MLPAPKNLVVSRVTEDSARLSWTAPDAAFDSFTIAYEEHGLVGEAIYLRVPGSERSYDLTGLKPGTEYHVGIMGVKGGVFSSPLSAIFTT
B2: SEQ ID NO 109 (designed binder)
chain: MLPAPKNLVVSRVTEDSARLSWTAPDAAFDSFHIAYEELVTEGEAIYLRVPGSERSYDLTGLKPGTEYLVDIEGVKGGHLSSPLSAIFTT
B3: SEQ ID NO 85 (designed binder)
chain: MLPAPKNLVVSRVTEDSARLSWTAPDAAFDSFFIWYWEKSVDGEAIVLTVPGSERSYDLTGLKPGTEYNVGIQGVKGGTPSDPLSAIFTT
B4: SEQ ID NO 121 (designed binder)
chain: MLPAPKNLVVSRVTEDSARLSWTAPDAAFDSFSIDYPEFPVRGEAIVLTVPGSERSYDLTGPKPGTEYNVTIQGVKGGFPSMPLSAIFTT
B5: SEQ ID NO 86 (designed binder)
chain: MLPAPKNLVVSRVTEDSARLSWTAPDAAFDSFIIWYAEWVNDGEAIVLTVPGSERSYDLTGLKPGTEYRVEITGVKGGTWSRPLSAIFTT
B6: SEQ ID NO 100 (designed binder)
chain: MLPAPKNLVVSRVTEDSARLSWTAPDAAFDSFWIEYWEVVGFGEAIVLTVPGSERSYDLTGLKPGTEYWVGIYGVKGGNPSVPLSAIFTT
B7: SEQ ID NO 94 (designed binder)
chain: MLPAPKNLVVSRITEDSARLSWTAPDAAFDSFGIYYYEWWSTGEAIVLTVPGSERSYDLTGPKPGTEYYVKISGVKGGYRSYPLSAIFTT
B8: SEQ ID NO 39 (designed binder)
chain: MLPAPKNLVVSRVTEDSARLSWTAPDAAFDSFDIDYREWWTLGEAIVLTVPGSERSYDLTGLKPGTEYYVNIQGVKGGLRSYPLSAIFTT
B9: SEQ ID NO 113 (designed binder)
chain: MLPAPKNLVVSRVTEDSARLSWTAPDAAFDSFDIHYKEHSWWGEAIVLTVPGSERSYDLTGLKPGTEYIVPIPGVKGGGISRPLSAIFTT
B10: SEQ ID NO 88 (designed binder)
chain: MLPAPKNLVVSRVTEDSARLSWTAPDAAFDSFWIEYFEWTVGGEAIVLTVPGSERSYDLTGLKPGTEYYVSIYGVKGGWLSPPLSAIFTT
B11: SEQ ID NO 125 (designed binder)
chain: MLPAPKNLVVSRVTEDSARLSWTAPDAAFDSFVIEYFEFVGEGEAIVLTVPGSERSYDLTGLKPGTEYDVGIYGVKGGSLSSPLSAIFTT
B12: SEQ ID NO 120 (designed binder)
chain: MLPAPKNLVVSRVTEDSARLSWTAPDAAFDSFRIEYIEWWVGGEAIVLTVPGSERSYDLTGLKPGTEYWVDIKGVKGGKRSYPLSAIFTT
B13: SEQ ID NO 103 (designed binder)
chain: MLLAPKNLVVSRVTEDSARLSWTAPDAAFDSFAIEYFEYTGEGEAIVLTVPGSERSYDLTGLKPGTEYYVGIYGVKGGYLSRPLSAIFTT
B14: SEQ ID NO 104 (designed binder)
chain: MLPAPKNLVVSHVTEDSARLSWTAPDAAFDSFDIEYYELVGSGEAIVLTVPGSERSYDLTGLKPGTEYYVAIYGVKGGYLSRPLSAIFTT
B15: SEQ ID NO 114 (designed binder)
chain: MLPAPKNLVVSRVTEDSARLSWTAPDAAFDSFAIEYWEAVGSGEAIVLTVPGSERSYDLTGLKPGTEYHVYIYGVKGGYLSLPLSAIFTT
B16: SEQ ID NO 102 (designed binder)
chain: MLPAPKNLVVSRVTEDSARLSWTAPDAAFDSFSIDYDEPQPVGEAIVLTVPGSERSYDLTGLKPGTEYRVDIWGVKGGPTSGPLRATFTT
B17: SEQ ID NO 127 (designed binder)
chain: MLPAPKNLVVSRVTEDSARLSWTAPDAAFDSFPIPYGESPPSGEAIVLTVPGSERSYDLTGLKPGTEYVVIIRGVKGGGRSGPLSAISTT
B18: SEQ ID NO 101 (designed binder)
chain: MLPAPKNLVVSRVTEDSARLSWTAPDAAFDSFAIDYDEPINSGEAIVLTVPGSERSYDLTGPKPGTEYEVEIYGVKGGYLSRPLSAIFTT
B19: SEQ ID NO 37 (designed binder)
chain: MLPAPKNLVVSRVTEDSARLSWTAPDAAFDSFHIIYTEEEKEGEAIYLRVPGSERSYDLTGLKPGTEYLVEIEGVKGGKRSVPLNASFTT
B20: SEQ ID NO 36 (designed binder)
chain: MLPAPKNLVVSRVTEDSARLSWTAPDAAFDSFTITYIEWWENGEAIALSVPGSERSYDLTGLKPGTEYQVGIAGVKGGYKSYPLWALFTT
B21: SEQ ID NO 99 (designed binder)
chain: MLPAPKNLVVSRVTEDSARLSWTAPDAAFDSFGIQYNEFVFRGEAIVLTVPGSERSYDLTGLKPGTEYFVPISGVKGGDDSRPLSAIFTT
B22: SEQ ID NO 107 (designed binder)
chain: MLPAPKNLVVSRVTEDSARLSWTAPDAAFDSFFIQYTESHWVGEAIVLTVPGSERSYDLTGLKPGTEYAVPIEGVKGGDSSTPLSAIFTT
B23: SEQ ID NO 105 (designed binder)
chain: MLPAPKNLVVSRVTEDSARLSWTAPDAAFDSFGIAYYERSGAGEAIVLTVPGSERSYDLTGLKPGTEYMVYINGVKGGFVSSPLSAIFTT
B24: SEQ ID NO 111 (designed binder)
chain: MLPAPKNLVVSRVTEDSARLSWTAPDAAFDSFWIYYYESVGTGEAIVLTVPGSERSYDLTGLKPGTEYFVDISGVKVGTYSLPLSAIFTT
B25: SEQ ID NO 90 (designed binder)
chain: MLPAPKNLVVSRVTEDSARLSWTAPDAAFDSFTIHYWEFDPPGEAIVLTVPGSERSYDLTGLKPGTEYTVYIEGVKGGWWSKPLSAIFTT
B26: SEQ ID NO 118 (designed binder)
chain: MLPAPKNLVVSRVTEDSARLSWTAPDAAFDSFRILYGEVDPWGEAIVLTVPGSERSYDLTGLKPGTEYDVWIEGVKGGKLSWPLSAIFTT
B27: SEQ ID NO 117 (designed binder)
chain: MLPAPKNLVVSRVTEDSARLSWTAPDAAFDSFTIPYGEAFNPGEAIVLTVPGSERSYDLTGLKPGTEYDVFIEGVKGGTLSWPLSAIFTT
B28: SEQ ID NO 98 (designed binder)
chain: MLPAPKNLVVSRITEDSARLSWTAPDAAFDSFDIPYGEFDTIGEAIVLTVPGSERSYDLTGLKPGTEYDVYIEGVKGGHLSWPLSAIFTT
B29: SEQ ID NO 91 (designed binder)
chain: MLPAPKNLVVSRVTEDSARLSWTAPDAAFDSFVIEYWERTQPGEAIVLTVPGSERSYDLTGLKPGTEYDVWISGVKGGKWSEPLSAIFTT
B30: SEQ ID NO 93 (designed binder)
chain: MLPAPKNLVVSRVTEDSARLSWTAPDAAFDSFYIGYLEPGDNGEAIVLTVPGSERSYDLTGLKPGTEYNVSIGGVKGGLGSYPLSAIFTT
B31: SEQ ID NO 97 (designed binder)
chain: MLPAPKNLVVSRVTEDSARLSWTAPDAAFDSFFISYFEGWASGEAIHLYVPGSERSYDLTGLKPGTEYSVHIQGVKGGQPSTPLSAIFTT
B32: SEQ ID NO 84 (designed binder)
chain: MLPAPKNLVVSRVTEDSARLSWTAPDAAFDSFPIYYWEVFPAGEAIELDVPGSERSYDLTGLKPGTEYFVRIEGVKGGASSYPLRAEFTT
B33: SEQ ID NO 124 (designed binder)
chain: MLPAPKNLVVSRVTEDSARLSWTAPDAAFDSFSIDYPEFPVRGEAIVLTVPGSERSYDLTGLKPGTEYAVTIWGVKGGFTSQPLSAIFTT
B34: SEQ ID NO 38 (designed binder)
chain: MLPAPKNLVVSRVTEDSARLSWTAPDAAFDSFHIAYEESHTTGEAIFLRVPGSERSYDLTGLKPGTEYSVSIEGVKGGHYSPPLTAKFTT
B35: SEQ ID NO 119 (designed binder)
chain: MLPAPKNLVVSRVTEDSARLSWTAPDAAFDSFHIEYEETPQKGEAIFLRVPGSERSYDLTGLKPGTEYVVNIRGVKGGDLSSPLGALFTT
B36: SEQ ID NO 95 (designed binder)
chain: MLPAPKNLVVSRVTEDSARLSWTAPDAAFDSFRISYYEWYDLGEAIVLTVPGSERSYDLTGLKPGTEYWVDIAGVKGGYYSYPLSAIFTT
B37: SEQ ID NO 115 (designed binder)
chain: MLPAPKNLVVSRVTEDSARLSWTAPDAAFDSFFIGYLEPQPPGEAIVLTVPGSERSYDLTGLKPGTEYNVTIQGVKGGFPSMPLSAIFTTT
B38: SEQ ID NO 122 (designed binder)
chain: MLPAPKNLVVSRVTEDSARLSWTAPDAAFDSFQIPYWEQSLGGEAIVLTVPGSERSYDLTGLKPGTEYEVWIEGVKGGDLSFPLSAISTT
B39: SEQ ID NO 35 (designed binder)
chain: MLPAPKNLVVSRVTEDSARLSWTAPDAAFDSFEIAYFEAIWNGEAIYLTVPGSERSYDLTGLKPGTEYQVEIRGVKGGPTSRPLFAWFTT
B40: SEQ ID NO 110 (designed binder)
chain: MLPAPKNLVVSRVTEDSARLSWTAPDAAFDSFFIHYHEWWEAGEAIVLTVPGSERSYDLTGLKPGTEYLVDIPGVKGGDLSVPLSAIFTT
B41: SEQ ID NO 126 (designed binder)
chain: MLPAPKNLVVSRVTEDSARLSWTAPDAAFDSFSIDYLELGESGEAIVLTVPGSERSYDLTGLKPGTEYWVYIFGVKGGYPSAPLSAIFTT

The binders below were run against human serum albumin (human) (UniProt P02768) (assay: screening ELISA).
human serum albumin (human), sequence (P02768 25-609 limits assumed): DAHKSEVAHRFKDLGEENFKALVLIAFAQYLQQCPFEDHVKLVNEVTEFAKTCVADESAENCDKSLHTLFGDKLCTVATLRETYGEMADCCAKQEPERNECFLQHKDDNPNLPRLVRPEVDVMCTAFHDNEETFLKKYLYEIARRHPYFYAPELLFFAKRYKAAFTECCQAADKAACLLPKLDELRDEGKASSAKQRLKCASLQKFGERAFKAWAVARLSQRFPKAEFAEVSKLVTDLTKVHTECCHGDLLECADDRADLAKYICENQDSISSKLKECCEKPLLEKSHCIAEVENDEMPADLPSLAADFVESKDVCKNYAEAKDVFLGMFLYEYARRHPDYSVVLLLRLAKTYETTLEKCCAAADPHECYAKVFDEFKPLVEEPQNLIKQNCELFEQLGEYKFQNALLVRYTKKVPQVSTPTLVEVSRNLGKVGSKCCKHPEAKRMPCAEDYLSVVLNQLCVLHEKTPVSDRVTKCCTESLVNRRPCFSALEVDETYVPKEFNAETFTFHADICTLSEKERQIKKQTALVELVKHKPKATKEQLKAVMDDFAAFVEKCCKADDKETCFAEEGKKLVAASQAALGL
An HSA of 1200 was found for B1 in this work. An HSA of 1250 was found for B2 in this work. An HSA of 2500 was found for B3 in this work. An HSA of 28600 was found for B4 in this work. An HSA of 2250 was found for B5 in this work. An HSA of 2350 was found for B6 in this work. An HSA of 9900 was found for B7 in this work. An HSA of 4160 was found for B8 in this work. An HSA of 22600 was found for B9 in this work. An HSA of 6000 was found for B10 in this work. An HSA of 1050 was found for B11 in this work. An HSA of 1850 was found for B12 in this work. An HSA of 1200 was found for B13 in this work. An HSA of 1700 was found for B14 in this work. An HSA of 4200 was found for B15 in this work. An HSA of 13400 was found for B16 in this work. An HSA of 93300 was found for B17 in this work. An HSA of 9100 was found for B18 in this work. An HSA of 2720 was found for B19 in this work. An HSA of 6160 was found for B20 in this work. An HSA of 8150 was found for B21 in this work. An HSA of 4050 was found for B22 in this work. An HSA of 1400 was found for B23 in this work. An HSA of 7450 was found for B24 in this work. An HSA of 2550 was found for B25 in this work. An HSA of 18800 was found for B26 in this work. An HSA of 23500 was found for B27 in this work. An HSA of 15500 was found for B28 in this work. An HSA of 1800 was found for B29 in this work. An HSA of 1650 was found for B30 in this work. An HSA of 2200 was found for B31 in this work. An HSA of 3850 was found for B32 in this work. An HSA of 3450 was found for B33 in this work. An HSA of 4160 was found for B34 in this work. An HSA of 1850 was found for B35 in this work. An HSA of 1900 was found for B36 in this work. An HSA of 3450 was found for B37 in this work. An HSA of 29600 was found for B38 in this work. An HSA of 1520 was found for B39 in this work. An HSA of 18800 was found for B40 in this work. An HSA of 1750 was found for B41 in this work.
